Data as given in the supplement of paper PMC10567573.

B1: WDFY1 (parent)
chain: LLIPKEDGVITASEDRTIRVWLKR

Variants of: B1
Test: protein stability index of a GFP-peptide fusion (GPS, HEK-293T) (PSI 1-6); higher = more stable
Conditions: c terminus: a fixed tail appended
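Further: lentivirally expressed fusions sorted by FACS into six bins by GFP to DsRed ratio, PSI derived from sequencing read proportions per bin multiplied by bin number.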

Point of comparison: LLIPKEDFVITASEDRTIRVWLKR [G8F], protein stability index 1.48. Against it:
- LLIPEEDGVITASEDRTIRVWLKR [K5E] — higher, 1.58
- LLIPDEDGVITASEDRTIRVWLKR [K5D] — higher, 2.41
- LLIPIEDGVITASEDRTIRVWLKR [K5I] — higher, 2.28
- LLIPWEDGVITASEDRTIRVWLKR [K5W] — lower, 1.41
- LLIPTEDGVITASEDRTIRVWLKR [K5T] — higher, 1.62
- LLIPKEDIVITASEDRTIRVWLKR [G8I] — lower, 1.41
- LLIPKEDQVITASEDRTIRVWLKR [G8Q] — higher, 1.58
- LLIPKEDSVITASEDRTIRVWLKR [G8S] — higher, 1.95
- LLIPKEDEVITASEDRTIRVWLKR [G8E] — lower, 1.31
- LLIPKEDRVITASEDRTIRVWLKR [G8R] — higher, 2.3
- LLIPKEDVVITASEDRTIRVWLKR [G8V] — higher, 1.58
- LLIPKEDMVITASEDRTIRVWLKR [G8M] — lower, 1.14
- LLIPKEDHVITASEDRTIRVWLKR [G8H] — higher, 1.78
- LLIPKEDNVITASEDRTIRVWLKR [G8N] — higher, 2.07
- LLIPKEDGVITASEGRTIRVWLKR [D15G] — higher, 2.09
- LLIPKEDGVITASEKRTIRVWLKR [D15K] — lower, 1.41
- LLIPKEDGVITASEQRTIRVWLKR [D15Q] — higher, 2.32
- LLIPKEDGVITASEPRTIRVWLKR [D15P] — higher, 2.17
- LLIPKEDGVITASEMRTIRVWLKR [D15M] — higher, 1.55
- LLIPKEDGVITASECRTIRVWLKR [D15C] — lower, 1.1
- LLIPKEDGVITASTDRTIRVWLKR [E14T] — higher, 1.73
- LLIPKEDGVITASYDRTIRVWLKR [E14Y] — lower, 1.32
- LLIPKEDGVITASPDRTIRVWLKR [E14P] — higher, 2.62
- LLIPKEDGVITASMDRTIRVWLKR [E14M] — higher, 2.62
- LLIPKEDGVITASADRTIRVWLKR [E14A] — higher, 1.71
- LLIPKEDGVITASKDRTIRVWLKR [E14K] — higher, 1.93
- LLIPKEDGVITASVDRTIRVWLKR [E14V] — higher, 1.9
- LEIPKEDGVITASEDRTIRVWLKR [L2E] — higher, 3.8
- LRIPKEDGVITASEDRTIRVWLKR [L2R] — higher, 1.93
- LIIPKEDGVITASEDRTIRVWLKR [L2I] — higher, 2.22
- LAIPKEDGVITASEDRTIRVWLKR [L2A] — higher, 2.88
- LKIPKEDGVITASEDRTIRVWLKR [L2K] — higher, 3.31
- LWIPKEDGVITASEDRTIRVWLKR [L2W] — higher, 1.76
- LFIPKEDGVITASEDRTIRVWLKR [L2F] — lower, 1.25
- LPIPKEDGVITASEDRTIRVWLKR [L2P] — higher, 2.66
- LDIPKEDGVITASEDRTIRVWLKR [L2D] — higher, 3.47
- LLIPKEDGVITASEDRTRRVWLKR [I18R] — higher, 3.55
- LLIPKEDGVITASEDRTCRVWLKR [I18C] — higher, 2.07
- LLIPKEDGVITASEDRTTRVWLKR [I18T] — higher, 2.89
- LLIPKEDGVITASEDRTHRVWLKR [I18H] — higher, 2.34
- LLIPKEDGVITASEDRTSRVWLKR [I18S] — higher, 2.94
- LLIPKEDGVITASEDRTVRVWLKR [I18V] — higher, 2.61
- LLIPKEGGVITASEDRTIRVWLKR [D7G] — higher, 1.77
- LLIPKEKGVITASEDRTIRVWLKR [D7K] — higher, 1.56
- LLIPKEQGVITASEDRTIRVWLKR [D7Q] — higher, 2.1
- LLIPKETGVITASEDRTIRVWLKR [D7T] — higher, 2.37
- LLIPKEEGVITASEDRTIRVWLKR [D7E] — higher, 3.03
- LLIPKELGVITASEDRTIRVWLKR [D7L] — higher, 2.05
- LLIPKESGVITASEDRTIRVWLKR [D7S] — lower, 1.39
- LLIPKEYGVITASEDRTIRVWLKR [D7Y] — lower, 1.3
- LLIPKEWGVITASEDRTIRVWLKR [D7W] — lower, 1.33
- LLIPKEAGVITASEDRTIRVWLKR [D7A] — higher, 2.06
- LLIPKEDGVIAASEDRTIRVWLKR [T11A] — higher, 2.43
- LLIPKEDGVIPASEDRTIRVWLKR [T11P] — higher, 2.65
- LLIPKEDGVIRASEDRTIRVWLKR [T11R] — higher, 3.1
- LLIPKEDGVICASEDRTIRVWLKR [T11C] — higher, 2.7
- LLIPKEDGVIHASEDRTIRVWLKR [T11H] — higher, 2.56
- LLIPKEDGVIIASEDRTIRVWLKR [T11I] — higher, 2.15
- LLIPKEDGVIGASEDRTIRVWLKR [T11G] — higher, 1.98
- LLIPKEDGSITASEDRTIRVWLKR [V9S] — higher, 2.74
- LLIPKEDGCITASEDRTIRVWLKR [V9C] — higher, 1.65
- LLIPKEDGAITASEDRTIRVWLKR [V9A] — higher, 2.58
- LLIPKEDGQITASEDRTIRVWLKR [V9Q] — higher, 2.56
- LLIPKEDGIITASEDRTIRVWLKR [V9I] — higher, 2.77
- LLIPKEDGYITASEDRTIRVWLKR [V9Y] — lower, 1.02
- LLIPKEDGVITASEDREIRVWLKR [T17E] — higher, 1.81
- LLIPKEDGVITASEDRNIRVWLKR [T17N] — higher, 2.77
- LLIPKEDGVITASEDRPIRVWLKR [T17P] — higher, 2.51
- LLIPKEDGVITASEDRQIRVWLKR [T17Q] — higher, 2.02
- LLIPKEDGVITASEDRDIRVWLKR [T17D] — higher, 1.94
- LLIPKEDGVITASEDRMIRVWLKR [T17M] — higher, 1.73
- LLIPKEDGVITASEDRIIRVWLKR [T17I] — higher, 1.61
- LLIPKEDGVITASEDRRIRVWLKR [T17R] — higher, 2.29
- LLIPKEDGVITASEDRYIRVWLKR [T17Y] — lower, 1.33
- LLIPKEDGVITASEDRLIRVWLKR [T17L] — higher, 1.82
- LLIPKEDGVITASEDETIRVWLKR [R16E] — higher, 2.81
- LLIPKEDGVITASEDVTIRVWLKR [R16V] — higher, 1.95
- LLIPKEDGVITASEDYTIRVWLKR [R16Y] — lower, 1.41
- LLIPKEDGVITASEDLTIRVWLKR [R16L] — higher, 2.22
- LLIPKEDGVITASEDQTIRVWLKR [R16Q] — higher, 2.2
- LLIPKEDGVITASEDSTIRVWLKR [R16S] — higher, 1.7
- LLIPKEDGVITASEDCTIRVWLKR [R16C] — higher, 1.6
- LLIPKEDGVITASEDRTIRMWLKR [V20M] — higher, 1.66
- LLIPKEDGVITASEDRTIRYWLKR [V20Y] — higher, 1.87
- LLIPKEDGVITASEDRTIRRWLKR [V20R] — higher, 1.64
- LLIPKEDGVITASEDRTIRPWLKR [V20P] — higher, 2.44
- LLIPKEDGVITASEDRTIRIWLKR [V20I] — higher, 2.64
- LLIPKEDGVITASEDRTIRSWLKR [V20S] — higher, 2.15
- LLIPKEDGVITASEDRTIGVWLKR [R19G] — higher, 1.8
- LLIPKEDGVITASEDRTIYVWLKR [R19Y] — higher, 2.66
- LLIPKEDGVITASEDRTILVWLKR [R19L] — lower, 1.31
- LLIPKEDGVITASEDRTIAVWLKR [R19A] — higher, 2.03
- LLIPKEDGVITASEDRTIEVWLKR [R19E] — higher, 1.92
